Here are results for 40 sequences from the nanobody polyreactivity screen of Harvey et al. (2022).

The series is described as follows: yeast display, Sf9 membrane polyspecificity reagent, FACS + sequencing; frameworks hold sequencing errors. The method, boiled down: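 A nanobody's polyreactivity label depends on the gate it was sorted from. Yeast display cells were stained with 10% biotinylated, detergent-solubilized Sf9 membrane reagent for 1 hour at 4 °C, enriched on streptavidin microbeads and sorted by FACS. The low and high (top ~1%) gates were set on anti-HA fluorescence for expression and streptavidin fluorescence for reagent binding.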
In the case of “QVQLVESGGGLVQAGGSLRLSCAASGNIFGNNAMGWYRPEPGKERELVAAISSSGTSTYYADSVKGRFTISLDNAKNTVYLQMNSLKPEDTAVYYCNADPLPYDGYYDYDYWGQGTQVTVSS”, the “polyreactivity (PSR sort gate)” value is given as “low polyreactivity”.
As for “QVQLEESGGGLVQAGGSLRLTCAPSGTTFSRYVMGWYRQAPGKERELVAAINRSSGSTYYADSVKGRFTISRDNAKNTVYLQMNSLKPEDTAVYYCAALYRKRGSVQYDYWGQGTQVTVSS”, the “polyreactivity (PSR sort gate)” value was “high polyreactivity”.
Consider “QVQLVESGGGLVQAGGSLRLSCAASGSTLGHNAMGWYRQAPGKERELVAAITSSGGRTYYADSVKGRFTISRDNAKNTVYLQMYSLKPEDTAVYYCAAKLHGYYDVFGQSHRTYDYWGQGTQVTVSS”, for which the “polyreactivity (PSR sort gate)” value is “high polyreactivity”.
For the sequence “QVQLVESGGALVQAGGSLRLSCAASGSTFYRNAMGWYRPAPGKERELVATISSSDGSTYYADSVKGRFTISRDNAKNTVYVQMNSLKPEDTAVYYCNADPISSGSVANFQYDYCGQGTQVTVSS”, the “polyreactivity (PSR sort gate)” value is reported as “low polyreactivity”.
On to “QVQLVESGGGLLQAGGSLRLSCAASGFTFRPYAMGLYRQAPGKERELVAAIDYSGGSTSYADSVKGRFTISRDNAKNTVYLQLNSLKPEDTAVFSCATDYPLSWSPLYDYDYWGQGTQVTVSS”, for which the “polyreactivity (PSR sort gate)” value was “low polyreactivity”.
Regarding “QVQLVESGGGLVQAGGSLRLSCAASGFTFPYYAMGWYRQAPGKERELVAAISSSGGRTYYADSVKGRFTISRDNAKNTVYLQMNSLKPEDTAVYYCAVRGKAYRRLRDYWGQGTQVTVSS”, the “polyreactivity (PSR sort gate)” value is “high polyreactivity”.
Consider “QVQLVESGGGLVHAGGSLRLSCAASGFIFYQYAMGWYRQAPGQERELVAAISKSGGNTNYADSVKGRFTISRDNAKNTVYLQMNSLKPEDTAVYYCAADRGQRGLYYWGQGTQVTVSS”, for which the “polyreactivity (PSR sort gate)” value is on record as “high polyreactivity”.
As to “QVQLVESGGGLVQSGGSLRLSCAASGRIFDWNVMGSYRQAPGKERELVSVINDSTGTTYYADSVKGRFTISRDNAKNTVYLQMNSLKPEDTAVYYCAAYVWISSEEFYYWGQGTQVTVSS”, the “polyreactivity (PSR sort gate)” value is listed as “low polyreactivity”.
In the case of “QVQLVESGGGVIQAGGSLRLSCAASGRTFYRNTMGWYRQAPGKERELVASISRGGRTNYADSVKGRFTISRDNAKNTVYLQMNSLKREDTAVYYCAKQTSYGGIIRYYASCYGYWGQGTQVTVSS”, the “polyreactivity (PSR sort gate)” value is given as “high polyreactivity”.
On to “QVQLVESGGGLVQAGGSLRLSCAASGSTIDKYAMGWYRQAPGKERELVAAIRKSGGRTYYADSVKGRFTISRDNAKHTVYLQMYSLKQEDTAVYYCAAVLPNYYSVRYGYWGQGTQVSVSS”, for which the “polyreactivity (PSR sort gate)” value is listed as “high polyreactivity”.
Turning to “QVQLVESGGGLVQAGGSLRLSCAASGFTFRYYAMGCYRPAPGKERELVAAISSRGGTTYYADSVKGRFTISRDNAKNTVYLQMNSLKPEDTAVYYCAATYAYGRYYGYVYLGDYWGQGTQVTVSS”, the “polyreactivity (PSR sort gate)” value is “high polyreactivity”.
As for “QVQLVESGGGLVQAGGSLRLSCAASGRIFMPYAMGWYRQAPGKERELVAAITCTGGSTYYADSVKGRFTISRDNAKNTVYLQMNSPKPEDTAVYYCNARRGYQQHRRDYWGQGTQVTVSS”, the “polyreactivity (PSR sort gate)” value was “low polyreactivity”.
Under “QVQLVESGGGLVQAGGSLRLSCAASGRTFGRYDMGWYRQAPGKERELVAAITGGVITTYADSVKGRFTISRDNAKNTVYLQMKSLKREDTAVYDCAARYNVFPSPHYYYWGQGTQVTVSS” stands “low polyreactivity”.
On to “QVQLVESVGGLVQAGGSLRLSCAASGSTFRRYAMGWSRQAPGKERELVASISRSGGSTYYADSVKGRFTISRDNAKNTVYLQMNSLKPEDTAVYYCAKKPYKSAYDYSSAYDYWGQGTQVTVSS”, for which the “polyreactivity (PSR sort gate)” value is on record as “high polyreactivity”.
To “QIQLVESGGGLLQAGGSLGLSCAASGSIFVKYAMGWYRQAPGKERELVAAITTGVGSTYYADSVKGRFTISRDNAKNTVYLQMNSVKPEDSAVFYWNAYAYFGPWWSFRATYDYWGQGTQVTVSS” belongs “low polyreactivity”; to “QVQLVESGGGLVQAGGSLRLICAASGSILQRNAMGWYRPAPGKERELVAAISWSGDNTYYADSVKGRFTISRDNAKNTVYLQMNSVKPEDTAVYYCATDADIYFQEYDYWGQGTQVTVSS”, “low polyreactivity”.
As for “QVQLVESGGGLVQAGGSLRLSCAASGSIFPTNAMGWYRQAPGKERELVAAISRGDSTYYADSVKGRFTISRDNAKNTVYLQMNSLKPEDTAVYYCAARRSRTLWSPFYYWGQGTQVTVSS”, the “polyreactivity (PSR sort gate)” value was “low polyreactivity”.
To “QVQLVESGGGLVQAGGSLRLSCAASGFIFARNTMGWYRQSPGKERELVAAITKSGGSTYYADSVKGRFTISRDNAKNTVYLQMNSLKPEDTAVYYCAKDPVELSPADWRADYDYWGQGTQVTVSS” belongs “low polyreactivity”; to “QVHLVESGGGLVQAGGSLRLSCAATGSTFRYNAMGWYRQAPGKERELVAAISWRGGSTYYADSVKGRFTISRDNAKNTVYLQMNSLKPEDTAVYYCAADRYPSTTYPLSDYNYWGQGTQVTVSS”, “high polyreactivity”.
To “QVQLVESGGGLVQAGGSLRLICAASGTTFPRYAMGWYRKAPGKERELVAAITRSGANTHYADSVKGRFTIPRDNAKNTVYLQMTSLKPEDTAVYYCAARIYWGYGTRYYYWGQGTQVTVSS” belongs “high polyreactivity”; to “QVQLVESGGGLVQAGGSLRLSCAASGRIFGSYAMGWYRQAPGKERELVAGIRSVGSTNYADSVKGRFTISRDNAKNTVYFQINSLKPEDTAVYYCAARLWHLSYAGQGGDYWGHGTQVTVSS”, “low polyreactivity”; to “QVQLVESGGGLVQAGGSLRLSCADSARILYHYAIGWYRQAHGKETELVAAITRGGGTNYADSVKGRFTISRDNAKNTVYLQMNSLKPEDTAVYYCNADRFIVTRSRRGDYWGQGTQVTVSS”, “low polyreactivity”.
To “QVQLVESGGGLVQAGGSLRLSCAASGSIFVQYAMGWYRQAPGKERELVAGITISGGRTYYADSVKGRFTISRDNAKNTVYLQMNSLKPEDTAVYYSNADVTRASSRYNSWGQGTQVTVSS” belongs “low polyreactivity”; to “QVQLVESGGGLVQAAGSLRLSCAASGSIFFYNAMGWYRQAPGIERELVAAITGGGGRTYYADSVKGRFTISRDNAKNTVYLQMNSLKPEDTAVYYCNKDWAQPYDYWGQGTQVTVSS”, “high polyreactivity”.
“QVQLVESGGGLVQAGGSLRLSCAASGRIFSRNAMGWYRQAPGKDRELVAAISRSGTSTYYADSGKGRFTISRDNAKNTVYLQMNSLKPEDTAVYYCAADSWSRSVNYYYWGQGTQVTVSS”: the “polyreactivity (PSR sort gate)” value was “low polyreactivity”.
In the case of “QVQLVESGGGLVQEGGSLRLSCAASGITFGRYAMGWYRQAPGKERELVAAISWSGGSTYYADSVKGRFTISRDNAKITVYLQMNSLKPEDTAVYSCNARGFPGKFGYWGQGTQVTVSS”, the “polyreactivity (PSR sort gate)” value is given as “high polyreactivity”.
Under “QDQIVESRGRLVQAGGSLRLSCAASGRTFKPYAMGWYRQAPGKERELVARISGSGGSTYYADSVKGRFTISRDNAKNTVYLQMNSLKPEDTAVYDCATTPYYWFYYWGQGTQVTVSS” stands “low polyreactivity”.
With “QVQLEESGGGLVQAGGSLRLSCAASGIIFQRNDMGWYRQAPGKERELVANIRDGGITYADSVKGRFTISRDNAKNTVYLQMNSLKPEDTAVYYCARDDTSPGYCDQSSNAAYYYWGQGTQVTVSS”, the “polyreactivity (PSR sort gate)” value is recorded as “low polyreactivity”.
With “PVQLVESGGGLVQAGGSLRLSCAASGFIFYYNTMGSYRQAPGKERELVAAINSGGSTYYADSVKGRFTISRDNAKNTVYLQMNSLKPEDTAVYYCAKRYAVSSGYYYWGQGTQVTVSS”, the “polyreactivity (PSR sort gate)” value was “high polyreactivity”.
Turning to “QVQLVESGGGLVQAGGSLRLSCAASGSIFSRNAKGWYRQAPGKERELVAAITSGGSTNYADSVKGRFTISRDNAKNTVYLQMNSLKPEDTAVYYCARGWISGFTSRYSIRVLFDYWGQGTQVTVSS”, the “polyreactivity (PSR sort gate)” value is reported as “high polyreactivity”.
For the sequence “QVQLVESGGGLVQAGGSLRLSCAASGRNFFRYAMGWYRQAPGKERELVATISRSGGTYADSVKGRFTISRDNAKNTVYLQMNSLKPEDTAVYYCNARTLYAYITRDYWGQGTQVTVSS”, the “polyreactivity (PSR sort gate)” value was “high polyreactivity”.
Regarding “QVQLVESGGGLVQAGGSLRISCAASGSTFQYYAMGWYRPAPGKETELVAAISDRDGGTFYADSVKGRFTISRDNAKNTVYLQMNSLKPEDTAVYYCANDAVGFRLDDNGYWGQGTQVTVSS”, the “polyreactivity (PSR sort gate)” value is reported as “low polyreactivity”.
Consider “QVQLVESGGGLVQAGGSLRLSCAASGRTFIGYAMGWYRQAPGKERELAAGISWSGGSTYYADSVKGRFTISRDNAKNTVYLQMNSLKPEDTAVYYCAARGRWSTEYGYWGQGTQVTVSS”, for which the “polyreactivity (PSR sort gate)” value is given as “low polyreactivity”.
“QVQLVESGGGLVQAGGSLRLSCADSGLIFTAHDMGWYRQAPGKERELVADISKSGSSTYYADSVKGRFTISRDNAKNTVYLQMNSLKPEDTAVYYCNADYLTYFTTFDYWGQGTQVTVSS”: the “polyreactivity (PSR sort gate)” value is on record as “low polyreactivity”.
On to “QVQLLESGGGLVQAGGSLRLSCAASGSTFPWYTMGWYRQAPGKERELVAPISNGGSTNYADSVKGRFTISRDNAKNTVYLQMNSLIPEDTAVYYCNARIPPYRWYQVSRGHGYWGQGTQVTVSS”, for which the “polyreactivity (PSR sort gate)” value was “high polyreactivity”.
As for “QVQLVESGGGLVQAGGSLRLSCAASGRTFAIYVMGWYRQAPGKERELVAAITRVGSTYADSVKGRFTISRDNAKNTVYVQMNSLKPEDTAVYYCAAVSGVRSGPWRYDYWGQGTQVTVSS”, the “polyreactivity (PSR sort gate)” value is reported as “high polyreactivity”.
With “QVQLVESGGGLVQAGGSLRLSCAASGSIYGLYAMGWYRQAPGKERELVATITSGSSTNYADSVKGRFTISRDNAKNTVYLQMNSLKPEDTAVYYCAVDDLYGFDYWGQCTQVTVSS”, the “polyreactivity (PSR sort gate)” value is on record as “low polyreactivity”.
Under “QVQLVESGGGLVHAGGSLRLSCAASGNIPPGNAMGWYRQAPGKERELVAAITASDGSTYYADSEKGRFTISRDHDKNTVYLQMNSLKPEDTAVYYCAKEQVYTYYLEYEYWGQGTQVTVSS” stands “high polyreactivity”; under “QVQLVESGAGLVQAGGSLRLSCAPSGSIFAAYAMGWYRQAPGKESELVAAIDRGGSTDYADSVKGRFTISRDNAKNTVYLQMNTLKPEDTAVYYCAKGYDYYVRRYYYWGQGTQVTVSS”, “high polyreactivity”.
In the case of “QVQLVESGGGLVQAGGSLRLSCAASGLIFKYYALGWYRQAPGKERELVAAMSWSGGSTYYADSVKGRFTISRDTAKNTVYLQMNSLKPEDTAVYYCAADSWIYSYSALSIYDYWGQGTQVTVSS”, the “polyreactivity (PSR sort gate)” value is reported as “high polyreactivity”.
